{"source": "patent US10801027B2", "about": "“Inhibitors of SRSF1 to treat neurodegenerative disorders” (University of Sheffield, priority 2016, dated 2020)", "molecules": {"B1": {"name": "SRSF1-m4: quadruple SRSF1 point mutant aa11-196, dominant negative, does not interact with TAP/NXF1 (protein)", "chain": "AGNNDCRIYVGNLPPDIRTKDIEDVFYKYGAIRDIDLKNRRGGPPFAFVEFEDPRDAEDAVYGRDGYDYDGYRLRVEFPASGAGTGRGGGGGGGGGAPRGRYGPPSAASENRVVVSGLPPSGSWQDLKDHMREAGDVCYADVYRDGTGVVEFVRKEDMTYAVRKLDNTKFRSHEGETAYIRVKVDG", "modifications": "left off: small tags and cut ends"}}, "key": {"[1]": {"test_system": "G4C2×38 transcripts", "assay": "Cytoplasmic fractionation and qRT-PCR of G4C2×38 transcripts in N2A cells", "assay_type": "cell-based, mouse", "procedure": "Neuro-2a cells were split into each well of 6 well plates (2×10^6 cells/well) and transfected for 72 hours with 1 μg pcDNA6.2-GW/EmGFP-Control miR RNAi, pcDNA6.2-GW/EmGFP-mouse SRSF1 miR1+2 RNAi, p3×FLAG/SRSF1 (11-196), or p3×FLAG/SRSF1 (11-196)-m4 and 1 μg pcDNA 3.1/RAN-G4C2×38-sense or RAN-C4G2×39-antisense using 3 μg PEI/1 μg DNA and one tenth medium volume OptiMEM. iNeurons were cultured in 6-well plates and transduced with 5MOI human LV-SRSF1-RNAi lentivirus for 5 days.\nCytoplasmic fractionation was performed as follows. Cells were removed from the plate using DEPC PBS and pelleted by centrifugation at 800×g for 5 minutes. Cell pellets were quickly washed with hypotonic lysis buffer (10 mM HEPES pH 7.9, 1.5 mM MgCl2, 10 mM KCl, 0.5 mM DTT). Cell pellets were then lysed in hypotonic lysis buffer containing 0.16 U/μL Ribosafe RNase inhibitors (Bioline), 2 mM PMSF (Sigma) and […]™ Protease Inhibitor Cocktail tablets, EDTA free (Sigma) according to manufacturer's instructions. Cells were lysed gently using a cut P1000 tip ensuring no physical force was exerted on the cell pellet. For fly tissue, da-GAL4 was used to drive transgene expression in all tissues, and 10 third instar larvae were homogenised and lysed using the same buffer and a dounce homogenizer. The lysate then underwent differential centrifugation (1,500 g, 3 min, 4° C. then 3,500 g […], 8 min, 4° C. and then 17,000 g, 1 min, 4° C.) transferring the supernatant to a fresh tube after each centrifugation. The supernatant was then added to PureZOL (Biorad) to extract RNA. […]\nFollowing RNA quantification, 2 μg RNA was converted to cDNA using BioScript™ Reverse Transcriptase (Bioline). qRT-PCR primers were designed using Primer-BLAST (NCBI) and validated using a 1 in 4 serial template dilution series (standard curve with R^2>0.97). qRT-PCR reactions were performed in duplicate for 3 independent biological repeats using the Brilliant III Ultra-Fast SYBR® Green QPCR Master Mix (Agilent Technologies) on a MX3000P QPCR system (Statagene). qRT-PCR data was analysed using MxPro (Stratagene) and GraphPad Prism (Version 6). […]"}, "[2]": {"test_system": "G4C2×5 repeat RNA", "assay": "Protein:RNA UV crosslinking assay, sense probe", "assay_type": "binding", "details": "purified recombinant hexa-histidine-tagged protein", "procedure": "Recombinant proteins expressed in 1.51 of E. coli BL21 (DE3)-RP (Novagen) cell cultures were purified by IMAC chromatography on TALON/Cobalt beads (Clontech) in 1M NaCl containing buffers to prevent the potential co-purification of E. coli RNA (Lysis buffer: 50 mM TRIS-HCl pH8.0, 1M NaCl, 0.5% Triton X-100; Wash buffer: 50 mM TRIS-HCl pH8.0, 1M NaCl, 0.5% Triton X-100, 5 mM imidazole). […] Binding reactions were resolved on SDS-PAGE prior to analysis by Coomassie staining and Phosphoimaging."}, "[3]": {"test_system": "G4C2-sense or C4G2-antisense repeat transcripts", "assay": "RNA immunoprecipitation (RIP) assays in N2A cells", "assay_type": "binding, mouse", "details": "15 vs 38/39 repeats", "procedure": "Cells were split into 1×T-175 flasks/treatment (5×10^6 cells/plate) and transfected with 30 μg p3×FLAG, p3×FLAG/SRSF1 (11-196) or p3×FLAG/SRSF1 (11-196)-m4 and 10 μg pcDNA 3.1/RAN-G4C2×15-sense, RAN-G4C2×38-sense, RAN-G4C2×15-antisense or RAN-C4G2×39-antisense using 3 μg PEI/1 μg […] and one tenth volume OptiMEM.\nProtein-RNA complexes were extracted from Neuro-2a cells 48 hours after transfection. Protein-RNA complexes were cross-linked using 1% formaldehyde for 10 minutes, shaking at room temperature. Residual formaldehyde was quenched with 250 mM Glycine at room temperature for 5 minutes, shaking. Cross-linked cells were subsequently washed in ice cold DEPC treated PBS and scraped into ice cold RNase free lysis buffer (DEPC treated water containing 50 mM Hepes pH7.5, 150 mM NaCl, 10% glycerol, 0.5% triton X-100, 1 mM EDTA, 1 mM DTT, 1 μl RNase inhibitor, protease inhibitor cocktail). Cells were passed through a 21G gauge needle 10 times and left to lyse on ice for 10 minutes, followed by centrifugation at maximum speed at 4° C. for five minutes and quantification using Bradford Reagent. 2.5 mg of total protein at a 1 mg/ml concentration was incubated with 40 μl anti-FLAG® M2 affinity resin slurry (which had been blocked overnight with 1% BSA and 5 μl/ml ssDNA) overnight at 4° C. on a rotating wheel. One 15th of the total protein extract was retained for an input sample. […]"}}}
{"molecule": "B1", "values": [{"measurement": "cytoplasmic repeat transcript levels normalized to total levels", "setting": "[1]; G4C2×38, RNAi vs Ctrl-RNAi, SRSF1-m4 vs SRSF1", "result": "marked reduction"}, {"measurement": "cytoplasmic levels of G4C2×38 transcripts", "setting": "[1]; normalized to U1 snRNA", "result": "markedly reduced"}, {"measurement": "total levels of G4C2×38 transcripts", "setting": "[1]; normalized to U1 snRNA", "result": "not significantly altered"}, {"measurement": "direct interaction with sense G4C2×5 repeat RNA", "setting": "[2]", "result": "retains the ability to directly interact"}, {"measurement": "immunoprecipitated repeat transcripts", "setting": "[3]", "result": "length-dependent repeat-RNA sequestration"}]}
